Source: patent publication US20190322724

Test system: blocking anti-c-Src monoclonal antibodies

| Substance | TIMP-2 tyrosine phosphorylation in HT1080 CM (pulldown, anti-phos-Tyr immunoblot) | TIMP-2 tyrosine phosphorylation in SYF+c-Src CM (pulldown, anti-phos-Tyr immunoblot) |
| --- | --- | --- |
| secreted c-Src (e-Src) in conditioned media of HT1080 human fibrosarcoma cells | TIMP-2 tyrosine phosphorylation was abolished | – |
| secreted c-Src (e-Src) in conditioned media of SYF+c-Src cells | – | TIMP-2 tyrosine phosphorylation was abolished |
